Non-standard residues stand in square brackets, D forms with d. No end group written: not given here. pS = N[C@@H](COP(=O)(O)O)C(=O)O

By Kd is commonly meant the constant that tells how readily two partners part at equilibrium. High values mean weaker binding, low ones tighter binding.

B1: IRAK1 phosphopeptide 157-180 (pSer173-P174) (peptide)
peptide: ELGLVPSPASLWPPPP[pS]PAPSSTK
B2: IRAK1 phosphopeptide 126-136 (pSer131-P132) (peptide)
peptide: EAEAW[pS]PRKLP
B3: IRAK1 phosphopeptide 140-150 (pSer144-P145) (peptide)
peptide: STFL[pS]PAFPGS

Chain of 15N-WW domain of Pin1 (tag removed) (Q13526 5-39): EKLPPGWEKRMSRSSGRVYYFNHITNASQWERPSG

The experiment has as its target 15N-WW domain of Pin1 (tag removed) (UniProt Q13526 5-39, 15N-labelled). In words: NMR titration.
As to B1, binding was put at a Kd of 260 ± 75 µM. Then B2, with 220 ± 15 µM. B3 registered a Kd of 120 ± 12 µM.

For the origin of these results see article PMC3298750 (Nature immunology, 2011).
